Measurements published in doi:10.1101/2022.12.12.520143.

Target: GDP-L-galactose phosphorylase 1 (GGP1) with His6, expressed in E. coli (Solanum lycopersicum (tomato))

PAS/LOV protein (PLP) with His6, expressed in tobacco (natural protein)
inhibition of GGP activity by PLP incubated 2 h in darkness before mixing: 86%
